Data taken from patent publication US20130071921A1 (Pfizer, published 2013).
Where a chain is given by its changes, count along the chain named.

T1: Recombinant human Dkk-1 (R&D Systems cat no. 1096-DK/CF), 10xHis tag at the C terminal (human, UniProt O94907 32-266)
T1 construct: the actual N-terminus of the purified protein is marked in bold italic after residue 30, but the mark is an image lost in the text; also called rhuDkk-1; hDkk-1
T1 sequence: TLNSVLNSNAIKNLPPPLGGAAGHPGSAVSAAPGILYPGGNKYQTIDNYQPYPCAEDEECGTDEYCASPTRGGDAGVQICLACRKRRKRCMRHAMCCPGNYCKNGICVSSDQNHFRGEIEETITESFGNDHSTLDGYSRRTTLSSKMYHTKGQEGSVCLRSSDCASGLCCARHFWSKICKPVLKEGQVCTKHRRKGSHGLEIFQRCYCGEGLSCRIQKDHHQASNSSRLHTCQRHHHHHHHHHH

B1: L2.4E1 (Fab, V domains shown)
VH: EVQLVESGGGLVQPGGSLRLSCAASGFTFSSYAISWVRQAPGKGLEWVASVSGHGVWTYYPDSVKGRFTISRDNAKNSLYLQMNSLRAEDTAVYYCATSLENYAFDYWGQGTTVTVSS
VL: EIVLTQSPATLSLSPGERATLSCRASESVDDFGISFMNWYQQKPGQAPRLLIYAASKQGSGIPARFSGSGSGTDFTLTISSLEPEDFAVYYCQQSKEVPPTFGGGTKVEIK
notes: G55# and L56# read as gaps; tested as Fab (E. coli lysate, screening mode); human kappa CL and IgG2 CH1 not included here
B2: SL3.1F12 (Fab, V domains shown)
VH: EVQLVESGGGLVQPGGSLRLSCAASGFTFSSYAISWVRQAPGKGLEWVASVSGGGRTYYPDSVKGRFTISRDNAKNSLYLQMNSLRAEDTAVYYCATSLENYAFDYWGQGTTVTVSS
VL: B1 VL with T101Y
notes: tested as Fab (E. coli lysate, screening mode); human kappa CL and IgG2 CH1 not included here
B3: SL3.1G2 (Fab, V domains shown)
VH: B2 VH
VL: B1 VL with K96I
notes: as for B2
B4: SL3.4D1 (Fab, V domains shown)
VH: B2 VH
VL: B1 VL with K96M
notes: as for B2
B5: L2.P4.D1 (Fab, V domains shown)
VH: EVQLVESGGGLVQPGGSLRLSCAASGFTFSSYAISWVRQAPGKGLEWVASVSGTGLGFQTYYPDSVKGRFTISRDNAKNSLYLQMNSLRAEDTAVYYCATSLDNYAFDYWGQGTTVTVSS
VL: B1 VL
notes: as for B2
B6: SL3.3H8 (Fab, V domains shown)
VH: B2 VH
VL: B1 VL with P100G
notes: as for B2
B7: SL3.4C7 (Fab, V domains shown)
VH: B2 VH
VL: B1 VL with Q94H
notes: as for B2
B8: SL3.4A10 (Fab, V domains shown)
VH: B2 VH
VL: B1 VL with K96L
notes: as for B2
B9: SL3.3C10 (Fab, V domains shown)
VH: B2 VH
VL: B1 VL with P99W
notes: as for B2
B10: SL3.4F5 (Fab, V domains shown)
VH: B2 VH
VL: B1 VL with S95G
notes: as for B2
B11: SL3.4E4 (Fab, V domains shown)
VH: B2 VH
VL: B1 VL with E97D
notes: as for B2
B12: SL3.3F4 (Fab, V domains shown)
VH: B2 VH
VL: B1 VL with K96S
notes: as for B2
B13: SL3.4F1 (Fab, V domains shown)
VH: B2 VH
VL: B1 VL with P100S
notes: as for B2
B14: SL3.3A10 (Fab, V domains shown)
VH: B2 VH
VL: B1 VL with V98L
notes: as for B2
B15: SL3.1F11 (Fab, V domains shown)
VH: B2 VH
VL: B1 VL with K96W
notes: as for B2
B16: SL3.1G9 (Fab, V domains shown)
VH: B2 VH
VL: B1 VL with S95L
notes: as for B2
B17: SL3.3B11 (Fab, V domains shown)
VH: B2 VH
VL: B1 VL with S95A
notes: as for B2
B18: SL3.1D2 (Fab, V domains shown)
VH: B2 VH
VL: B1 VL with T101L
notes: as for B2
B19: 4E8.33L (antibody, V domains shown)
VH: B2 VH with G54W, G55L, R56D
VL: B1 VL with M37I, A55G, S95L
B20: 2E11.33L (antibody, V domains shown)
VH: B5 VH with D103R
VL: B1 VL with M37I, A55G, S95L
B21: 4F10.33L (antibody, V domains shown)
VH: B5 VH with D103K
VL: B1 VL with M37I, A55G, S95L
B22: 36H.33L (antibody, V domains shown)
VH: B2 VH with G54W, G55F, R56D, E100R
VL: B1 VL with M37I, A55G, S95L

Target: T1, Recombinant human Dkk-1 (R&D Systems …)
Experiment: theoretical: koff / estimated kon 1e6 1/Ms (SPR screening 37C)
Description: (§1) For screening assays to determine binding and dissociation rates of huMabJC18 variants to human Dkk1, either BIAcore or ProteOn XPR36 (BioRad, Inc.) systems were used. For the BIAcore assay, biotinylated-human Dkk1 was captured on SA (streptavidin) BIAcore chips according to the supplier's instructions. Biotinylated-human Dkk-1 protein was diluted into HBS-EP, and injected over the chip at a concentration of 5 μg/mL. Flow times across the individual chip channels were selected to achieve an antigen density of approximately 500-600 response units (RU). HBS-EP buffer was used as running buffer. Filtered recombinant E.coli cell lysates were injected at high temperature (37° C.) for 1 min at 30 ul/min, allowing a 1-5 min dissociation phase. Surfaces were regenerated with 8 mM NaOH+8% ethanol. A positive control Fab (clone 24) was injected twice at the start of the experiment, and again at the end of the assay to assess reproducibility.
For the ProteOn assay, biotinylated human Dkk-1 was injected for 1 min at serial fold dilutions empirically determined to yield different levels of immobilization (150-3000 RU) on five channels of a ProteOn NLC Neutravidin sensor chip. The sixth channel was left unmodified to serve as a reference surface. Recombinant Fabs in filtered E. coli lysates were injected at high temperature (37° C.) for 50 sec at 20 μl/min. Running buffer consisted of PBS+1 mg/ml BSA+0.005% Tween-20. The ProteOn is configured such that each injection flows over each of the five Dkk-1 channels as well as the reference channel, and six Fab samples can be injected simultaneously. Fab dissociation from the Dkk-1 surface was monitored for 20 min. The chip surface was regenerated with a 30-sec injection of 8% EtOH, 8 mM NaOH. Clone 24 Fab was used as control. Level of binding during association, and rate of dissociation for each clone was very consistent between different ligand channels. […]

Kd [nM]	Binder
5.51	B1
5.52	B2
8.72	B3
7.5	B4
2.88	B5
22.9	B6
7.3	B7
7.3	B8
12.1	B9
7.8	B10
7.7	B11
11.8	B12
16.9	B13
5.72	B14
5.4	B15
0.947	B16
12	B17
4.9	B18

Target: T1, Recombinant human Dkk-1 (R&D Systems …)
Experiment: SPR 37C (BIAcore/ProteOn), hDkk-1 series over captured IgG (taken so as kon is printed)

Kd [nM]	koff [s⁻¹]	kon [M⁻¹ s⁻¹]	Binder
0.008	8.55e-05	1.13e+07	B19
0.03	8.55e-05	2.88e+06	B20
0.037	8.55e-05	2.31e+06	B21
0.017	8.55e-05	5.18e+06	B22

Target: T1, Recombinant human Dkk-1 (R&D Systems …)
Experiment: SPR screening 37C (BIAcore/ProteOn), Fab lysate over biotinylated human Dkk-1
Description: as §1
For the ProteOn assay, biotinylated human Dkk-1 was injected for 1 min at serial fold dilutions empirically determined to yield different levels of immobilization (150-3000 RU) on five channels of a ProteOn NLC Neutravidin sensor chip. The sixth channel was left unmodified to serve as a reference surface. Recombinant Fabs in filtered E. coli lysates were injected at high temperature (37° C.) for 50 sec at 20 μl/min. Running buffer consisted of PBS+1 mg/ml BSA+0.005% Tween-20. The ProteOn is configured such that each injection flows over each of the five Dkk-1 channels as well as the reference channel, and six Fab samples can be injected simultaneously. Fab dissociation from the Dkk-1 surface was monitored for 20 min. The chip surface was regenerated with a 30-sec injection of 8% EtOH, 8 mM NaOH. Clone 24 Fab was used as control. Level of binding during association, and rate of dissociation for each clone was very consistent between different ligand channels.

koff [s⁻¹]	Binder
0.00551	B1
0.00552	B2
0.00872	B3
0.0075	B4
0.00288	B5
0.0229	B6
0.0073	B7
0.0073	B8
0.0121	B9
0.0078	B10
0.0077	B11
0.0118	B12
0.0169	B13
0.00572	B14
0.0054	B15
0.000947	B16
0.012	B17
0.0049	B18
